According to patent US20060211075:

T1: peptide 23, Dap-substituted pyrene derivative at Y+3 (not fully specified)
T1 chain: EEEIYGEXEA


Target: T1, peptide 23, Dap-substituted pyrene …

Protein	Km	Vmax	phosphorylation of the peptide (fluorescence)
LynB (protein) MGCIKSKGKDSLSDDGVDLKTQPVPESQLLPGQRFQTKDPEEQGDIVVALYPYDGIHPDDLSFKKGEKMKVLEEHGEWWKAKSLLTKKEGFIPSNYVAKLNTLETEEWFFKDITRKDAERQLLAPGNSAGAFLIRESETLKGSFSLSVRDFDPVHGDVIKHYKIRSLDNGGYYISPRITFPCISDMIKHYQKQADGLCRRLEKACISPKPQKPWDKDAWEIPRESIKLVKRLGAGQFGEVWMGYYNNSTKVAVKTLKPGTMSVQAFLEEANLMKTLQHDKLVRLYAVVTREEPIYIITEYMAKGSLLDFLKSDEGGKVLLPKLIDFSAQIAEGMAYIERKNYIHRDLRAANVLVSESLMCKIADFGLARVIEDNEYTAREGAKFPIKWTAPEAINFGCFTIKSDVWSFGILLYEIVTYGKIPYPGRTNADVMTALSQGYRMPRVENCPDELYDIMKMCWKEKAEERPTFDYLQSVLDDFYTATEGQYQQQP	130 µM	4 µmol/min/mg	
Csk (protein) MSAIQAAWPSGTECIAKYNFHGTAEQDLPFCKGDVLTIVAVTKDPNWYKAKNKVGREGIIPANYVQKREGVKAGTKLSLMPWFHGKITREQAERLLYPPETGLFLVRESTNYPGDYTLCVSCDGKVEHYRIMYHASKLSIDEEVYFENLMQLVEHYTSDADGLCTRLIKPKVMEGTVAAQDEFYRSGWALNMKELKLLQTIGKGEFGDVMLGDYRGNKVAVKCIKNDATAQAFLAEASVMTQLRHSNLVQLLGVIVEEKGGLYIVTEYMAKGSLVDYLRSRGRSVLGGDCLLKFSLDVCEAMEYLEGNNFVHRDLAARNVLVSEDNVAKVSDFGLTKEASSTQDTGKLPVKWTAPEALREKKFSTKSDVWSFGILLWEIYSFGRVPYPRIPLKDVVPRVEKGYKMDAPDGCPPAVYEVMKNCWHLDAAMRPSFLQLREQLEHIKTHELHL	120 µM	0.4 µmol/min/mg	
Fes/Fps (protein) MGFSSELCSPQGHGVLQQMQEAELRLLEGMRKWMAQRVKSDREYAGLLHHMSLQDSGGQSRAISPDSPISQSWAEITSQTEGLSRLLRQHAEDLNSGPLSKLSLLIRERQQLRKTYSEQWQQLQQELTKTHSQDIEKLKSQYRALARDSAQAKRKYQEASKDKDRDKAKDKYVRSLWKLFAHHNRYVLGVRAAQLHHQHHHQLLLPGLLRSLQDLHEEMACILKEILQEYLEISSLVQDEVVAIHREMAAAAARIQPEAEYQGFLRQYGSAPDVPPCVTFDESLLEEGEPLEPGELQLNELTVESVQHTLTSVTDELAVATEMVFRRQEMVTQLQQELRNEEENTHPRERVQLLGKRQVLQEALQGLQVALCSQAKLQAQQELLQTKLEHLGPGEPPPVLLLQDDRHSTSSSEQEREGGRTPTLEILKSHISGIFRPKFSLPPPLQLIPEVQKPLHEQLWYHGAIPRAEVAELLVHSGDFLVRESQGKQEYVLSVLWDGLPRHFIIQSLDNLYRLEGEGFPSIPLLIDHLLSTQQPLTKKSGVVLHRAVPKDKWVLNHEDLVLGEQIGRGNFGEVFSGRLRADNTLVAVKSCRETLPPDLKAKFLQEARILKQYSHPNIVRLIGVCTQKQPIYIVMELVQGGDFLTFLRTEGARLRVKTLLQMVGDAAAGMEYLESKCCIHRDLAARNCLVTEKNVLKISDFGMSREEADGVYAASGGLRQVPVKWTAPEALNYGRYSSESDVWSFGILLWETFSLGASPYPNLSNQQTREFVEKGGRLPCPELCPDAVFRLMEQCWAYEPGQRPSFSTIYQELQSIRKRHR	60 µM	3 µmol/min/mg	
Flt3 (protein) HKYKKQFRYESQLQMVQVTGSSDNEYFYVDFREYEYDLKWEFPRENLEFGKVLGSGAFGKVMNATAYGISKTGVSIQVAVKMLKEKADSSEREALMSELKMMTQLGSHENIVNLLGACTLSGPIYLIFEYCCYGDLLNYLRSKREKFHRTWTEIFKEHNFSFYPTFQSHPNSSMPGSREVQIHPDSDQISGLHGNSFHSEDEIEYENQKRLEEEEDLNVLTFEDLLCFAYQVAKGMEFLEFKSCVHRDLAARNVLVTHGKVVKICDFGLARDIMSDSNYVVRGNARLPVKWMAPESLFEGIYTIKSDVWSYGILLWEIFSLGVNPYPGIPVDANFYKLIQNGFKMDQPFYATEEIYIIMQSCWAFDSRKRPSFPNLTSFLGCQLADAEEAMYQNVDGRVSECPHTYQNRRPFSREMDLGLLSPQAQVEDS	450 µM	4.9 µmol/min/mg	
ZAP-70 (protein) MPDPAAHLPFFYGSISRAEAEEHLKLAGMADGLFLLRQCLRSLGGYVLSLVHDVRFHHFPIERQLNGTYAIAGGKAHCGPAELCEFYSRDPDGLPCNLRKPCNRPSGLEPQPGVFDCLRDAMVRDYVRQTWKLEGEALEQAIISQAPQVEKLIATTAHERMPWYHSSLTREEAERKLYSGAQTDGKFLLRPRKEQGTYALSLIYGKTVYHYLISQDKAGKYCIPEGTKFDTLWQLVEYLKLKADGLIYCLKEACPNSSASNASGAAAPTLPAHPSTLTHPQRRIDTLNSDGYTPEPARITSPDKPRPMPMDTSVYESPYSDPEELKDKKLFLKRDNLLIADIELGCGNFGSVRQGVYRMRKKQIDVAIKVLKQGTEKADTEEMMREAQIMHQLDNPYIVRLIGVCQAEALMLVMEMAGGGPLHKFLVGKREEIPVSNVAELLHQVSMGMKYLEEKNFVHRDLAARNVLLVNRHYAKISDFGLSKALGADDSYYTARSAGKWPLKWYAPECINFRKFSSRSDVWSYGVTMWEALSYGQKPYKKMKGPEVMAFIEQGKRMECPPECPPELYALMSDCWIYKWEDRPDFLTVEQRMRACYYSLASKVEGPPGSTQKAEAACA			unable to effectively catalyze the phosphorylation of either 23 or 25
c-Met (protein) KKRKQIKDLGSELVRYDARVHTPHLDRLVSARSVSPTTEMVSNESVDYRATFPEDQFPNSSQNGSCRQVQYPLTDMSPILTSGDSDISSPLLQNTVHIDLSALNPELVQAVQHVVIGPSSLIVHFNEVIGRGHFGCVYHGTLLDNDGKKIHCAVKSLNRITDIGEVSQFLTEGIIMKDFSHPNVLSLLGICLRSEGSPLVVLPYMKHGDLRNFIRNETHNPTVKDLIGFGLQVAKGMKYLASKKFVHRDLAARNCMLDEKFTVKVADFGLARDMYDKEYYSVHNKTGAKLPVKWMALESLQTQKFTTKSDVWSFGVLLWELMTRGAPPYPDVNTFDITVYLLQGRRLLQPEYCPDPLYEVMLKCWHPKAEMRPSFSELVSRISAIFSTFIGEHYVHVNATYVNVKCVAPYPSLLSSEDNADDEVDTRPASFWETS			unable to effectively catalyze the phosphorylation of either 23 or 25
MLK1 (protein) PPIQLLEIDFAELTLEEIIGIGGFGKVYRAFWIGDEVAVKAARHDPDEDISQTIENVRQEAKLFAMLKHPNIIALRGVCLKEPNLCLVMEFARGGPLNRVLSGKRIPPDILVNWAVQIARGMNYLHDEAIVPIIHRDLKSSNILILQKVENGDLSNKILKITDFGLAREWHRTTKMSAAGTYAWMAPEVIRASMFSKGSDVWSYGVLLWELLTGEVPFRGIDGLAVAYGVAMNKLALPIPSTCPEPFAKLMEDCWNPDPHSRPSFTNILDQLTTIEESGFFE			unable to effectively catalyze the phosphorylation of either 23 or 25
